IC50 data for one molecule are collected here from patent publication US20090264352A1 (published 2009).

The target of this experiment is T1, GLP-1 receptor (RINm5F cell membranes) (UniProt P32301 22-463, limits assumed).
T1 construct: whole, on cells; The receptor source is homogenized cell membranes, not intact cells
T1 sequence (looked up): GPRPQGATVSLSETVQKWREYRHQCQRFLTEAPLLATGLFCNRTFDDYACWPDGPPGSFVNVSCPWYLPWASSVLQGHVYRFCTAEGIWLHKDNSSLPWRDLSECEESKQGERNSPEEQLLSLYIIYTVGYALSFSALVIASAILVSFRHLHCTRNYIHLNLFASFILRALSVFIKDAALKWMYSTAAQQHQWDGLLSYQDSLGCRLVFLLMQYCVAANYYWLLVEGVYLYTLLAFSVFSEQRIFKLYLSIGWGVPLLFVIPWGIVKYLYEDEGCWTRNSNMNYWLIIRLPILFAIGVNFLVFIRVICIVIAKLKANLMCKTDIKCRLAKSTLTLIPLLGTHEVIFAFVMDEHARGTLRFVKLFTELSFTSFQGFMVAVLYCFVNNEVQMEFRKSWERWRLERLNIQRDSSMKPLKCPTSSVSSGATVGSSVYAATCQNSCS
The experiment in a line: displacement of [125I]GLP-1 from RINm5F cell membranes, filtration and scintillation counting. (In general: Loss of bound radioactivity is the signal in a displacement assay; it reports binding, not function.)

Protocol: Reaction mixtures are filtered through glass filter pads presoaked with 0.3% PEI solution and rinsed with ice-cold phosphate buffered saline. Bound counts are determined using a scintillation counter. Binding affinities are calculated using GraphPad Prism [sequence] PRISM® software (GraphPad Software, Inc., San Diego, Calif.).

B1: GLP-1 (9-36) (peptide, UniProt P01275 100-127, looked up)
peptide: EGTFTSDVSSYLEGQAAKEFIAWLVKGR
notes: range 100-127; Test compound in the displacement assay
In general, IC50 refers to the concentration needed to halve the response being measured. Take B1: the IC50 was determined as 65 nM.
